According to patent publication US20210047398A1, “ASPROSIN, A FAST-INDUCED GLUCOGENIC PROTEIN HORMONE” (Baylor College of Medicine, priority 2016, published 2021):

Experiments:
human dermal fibroblasts = test: Adipogenic differentiation of human dermal fibroblasts; format: cell-based
Method: Cell Culture—Human dermal fibroblasts isolated from NPS subjects or WT dermal fibroblasts from unaffected control subjects were subjected to adipogenic differentiation using standard protocols. […] Standard transfection methods with expression plasmids were used for in vitro transgenesis.
RNA and Protein Analysis—Standard RNA extraction procedures (RNeasy Mini Kit from Qiagen) were employed. Reverse transcription was carried out using the Superscript III kit (Invitrogen) using the manufacturer's protocol. For gene expression analysis, QPCR was performed using sequence-specific primers and probes from Roche (Universal Probe Library). TBP was used as an internal control for all gene-expression assays. Western blotting was performed using standard methods on plasma or cell culture media using a mouse monoclonal antibody directed against Asprosin, which was purchased from Abnova (Catalog #H00002200-M01). The mouse monoclonal antibody against fibrillin-1 was purchased from Abcam (Catalog #ab3090). […] At that time, media was concentrated using the Amicon Ultra-2 Centrifugal filter unit before proceeding with western blotting.

[1] = Body composition, plasma parameters, histology, GTT and ITT in WT mice with increased circulating asprosin; format: in vivo
Method: Animals—10-week old male WT C57/Bl6 mice were used for all in vivo studies. […] Mice were injected with 2.6 micro molar recombinant His tagged Asprosin or recombinant GFP daily for 10 days via subcutaneous injection. Mice were sacrificed and plasma and various organs were isolated 10 days after viral infusion or peptide injection. The Baylor College of Medicine Institutional Animal Care and Utilization Committee approved all experiments.
Body composition and Serum analyses—Body composition was analyzed with the ECHO-MRI system (Echo medical systems, Texas). Mouse serum was prepared from blood obtained through cardiac puncture and analyzed with the COBAS Integra 400 plus analyzer (Roche). Plasma leptin, FFA, adiponectin and triglyceride levels were measured by using a Mouse Leptin ELISA Kit (Millipore), NEFA C Test Kit (Wako), Mouse Adiponectin ELISA Kit (Millipore) and Serum/plasma triglyceride detection kit (Sigma), respectively.
Histology—Mouse inguinal adipose tissue samples were fixed in 10% formaldehyde for H&E staining. Frozen livers were used for oil-red-O staining to evaluate hepatic triglyceride content.
Blood glucose levels were measured using a glucometer (Life Scan).

[2] = system: mouse primary hepatocytes
Method: Cell Culture. Primary mouse hepatocytes were isolated from 8- to 12-week-old WT mice using standard methodology. […] The cells were treated with 50 nM recombinant asprosin or GFP for 10 minutes for cAMP and PKA assays and for 2 hours for the in vitro glucose production assay. Cells were pretreated with various inhibitors for 1 hour prior to treatment with asprosin, GFP, Glucagon or Epinephrine. cAMP was measured from cell lysates using the cAMP direct immunoassay kit from Cell Biolabs. PKA activity was measured from cell lysates using the PKA kinase activity kit from Enzo Lifesciences, Inc. Media glucose content was measured using the Glucose Colorimetric Assay Kit from Biovision. Results were normalized to protein content.

liver = test: Liver cAMP level and PKA activity after subcutaneous injection; format: in vivo, mice; conditions: single 30 μg dose, 20 minutes
Description: […] Data are represented as the mean±SEM.
Cell Culture. […] Results were normalized to protein content.

[3] = Food intake, energy expenditure and body composition after asprosin gain-of-function; format: in vivo, mice
Method: Mouse food intake and energy expenditure—Food intake and energy expenditure were measured using the CLAMS System (Comprehensive Lab Animal Monitoring System, Columbus Instruments). Animals were acclimatized in the recording chambers for 48-72 hours, and measurements were taken subsequently for 24 hours during the light cycle and dark cycle. Mice received food and water ad libitum, or after an overnight fast where indicated. Oxygen consumption and food intake were recorded.
As previously described (Yan et al., 2016), male mice were anesthetized with inhaled isoflurane and stainless steel cannulas (Plastics One) were inserted into the lateral ventricles (0.34 mm caudal and 1 mm lateral from bregma; depth, 2.3 mm). […] These mice received 10 ng GFP ([…]) twice a day for 3 continuous days, and 10 ng asprosin (in […]) the last day. The BioDAQ food intake monitoring system (Research Diets, Inc) was used to monitor the food intake, and the food intake from the last GFP injection and asprosin were compared.
Mouse body composition—Body composition was analyzed using an ECHO-MRI system (Echo medical systems, Texas) or DEXA scans where indicated. Lean mass, fat mass, and overall body weight were calculated using the manufacturer-provided software.

[4] = bacterially-generated version (Romere et al., 2016); cited from earlier work
[5] = both experiments, 10 days, 4-hour fasted
[6] = daily subcutaneous doses for 10 days

B1: recombinant asprosin: 146 amino acid E. coli expressed fusion protein: 6 amino acid N-terminal His tag and 140 amino acid wild type asprosin (FBN1 2732-2871) (protein)
chain: HHHHHHSTNETDASNIEDQSETEANVSLASWDVEKTAIFAFNISHVSNKVRILELLPALTTLTNHNRYLIESGNEDGFFKINQKEGISYLHFTKKKPVAGTYSLQISSTPLYKKKELNQLEDKYDKDYLSGELGDNLKMKIQVLLH
- NPS associated fat differentiation and inflammogenic defects (human dermal fibroblasts; polypeptide added to the media of mutant cells (10 ug, 7 days), FIG. 15): rescued
- adipogenic differentiation in WT cells (human dermal fibroblasts; recombinant asprosin added to culture media (60 nanomolar), 7 days adipogenic induction, FIG. 4G): promoted adipogenic differentiation
- adipogenic defect in NPS mutant cells (human dermal fibroblasts; recombinant asprosin added to culture media (60 nanomolar), 7 days, FIG. 4H): sufficient to rescue the adipogenic defect
- blood glucose in insulin tolerance test ([1]; 60 minute mark, GFP mice had severe hypoglycemia): maintained their blood glucose levels
- glucose and insulin tolerance tests ([1]; 10 days, FIGS. 5G-5J): consistent with a diabetogenic effect
- fat cell volume, inguinal white fat microscopy ([1]; both experiments (FBN1 adenovirus; daily subcutaneous asprosin), 10 days): larger fat cell volume
- plasma leptin and adiponectin [1, 5]: higher levels
- plasma triglycerides and free fatty acids [1, 5]: lower levels
- plasma glucose and insulin ([1]; fasted mice, 10 days, FIGS. 11A-11D): hyperglycemia and hyperinsulinemia
- fat mass (MRI) ([1]; ten days of daily subcutaneous injection, vs GFP injection): significant increase
- lean mass (MRI) ([1]; ten days of daily subcutaneous injection, same in GFP injected mice): slight but significant decrease
- hepatocyte PKA activity, dose response [2]: increased in a dose responsive manner
- liver cAMP and protein kinase A activity (liver): sufficient to increase liver cAMP and protein kinase A activity
- orexigenic effect in mice with AgRP neuron ablation ([3]; IP injection, 24 hours cumulative food intake): completely eliminated
- adiposity (fat mass) [3, 6]: increase in adiposity
- energy expenditure [3, 6]: no change in energy expenditure
- food intake [3, 6]: expected hyperphagia
- food intake after intracerebroventricular (ICV) injection ([3]; dark phase, 10 ng ICV): orexigenic effect
- food intake (FIG. 17) ([3]; mice injected with asprosin): hyperphagia
- hypophagia of NPS mice ([3]; single subcutaneous dose): sufficient to completely rescue the hypophagia
- latent phase prior to orexigenic effect ([3]; single subcutaneous dose): latent phase of several hours
- food intake over the next 24-hr ([3]; single subcutaneous dose, C57Bl/6 mice, vs GFP): greater food intake
- plasma half-life [4]: ~20 min
